Values quoted from earlier work as cited in PMC8620506.

Molecular target: NS4B (Dengue virus) (UniProt P27909)

Substance: NS4A (from UniProt P27909)
- Kd: 50 nM
